In patent US20230331800A1:
Each block holds one substance with its values, some of them ahead of it.

Legend:
[1] = molecular target: IL2 receptors on lymphocyte populations of human PBMCs (human) (UniProt P01589); experiment: cell-based or functional assay
[2] = molecular target: OT-I TCR (ovalbumin(257-264)-specific T cell receptor of OT-1 TCR transgenic mouse CD8+ T cells) (mouse); experiment: cell-based or functional assay; conditions: scale: orders of magnitude higher potency than T5-IL2M6

Chain of UniProt P01589 (P01589 22-272, chain 1 of 3): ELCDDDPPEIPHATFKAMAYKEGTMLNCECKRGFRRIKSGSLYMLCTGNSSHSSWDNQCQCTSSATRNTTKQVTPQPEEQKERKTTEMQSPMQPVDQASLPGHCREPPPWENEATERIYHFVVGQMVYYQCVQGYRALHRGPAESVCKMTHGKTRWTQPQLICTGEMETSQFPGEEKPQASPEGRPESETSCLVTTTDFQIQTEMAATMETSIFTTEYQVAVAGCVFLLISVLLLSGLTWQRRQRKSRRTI
Chain of UniProt P01589 (P14784 27-551, chain 2 of 3, further chain): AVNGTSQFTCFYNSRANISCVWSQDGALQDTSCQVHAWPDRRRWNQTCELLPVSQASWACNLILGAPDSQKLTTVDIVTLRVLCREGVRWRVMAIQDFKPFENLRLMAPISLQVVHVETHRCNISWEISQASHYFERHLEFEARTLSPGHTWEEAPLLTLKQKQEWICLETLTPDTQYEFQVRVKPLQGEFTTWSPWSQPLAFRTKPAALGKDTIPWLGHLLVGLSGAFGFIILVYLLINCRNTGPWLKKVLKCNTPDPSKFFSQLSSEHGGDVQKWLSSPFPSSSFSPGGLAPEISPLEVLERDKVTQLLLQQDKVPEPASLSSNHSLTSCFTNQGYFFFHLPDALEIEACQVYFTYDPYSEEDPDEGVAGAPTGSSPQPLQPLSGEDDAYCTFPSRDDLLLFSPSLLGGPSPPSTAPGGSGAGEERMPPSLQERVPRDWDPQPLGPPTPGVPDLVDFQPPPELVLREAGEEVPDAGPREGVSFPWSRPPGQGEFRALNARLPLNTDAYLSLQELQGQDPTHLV
Chain of UniProt P01589 (P31785 23-369, chain 3 of 3, further chain): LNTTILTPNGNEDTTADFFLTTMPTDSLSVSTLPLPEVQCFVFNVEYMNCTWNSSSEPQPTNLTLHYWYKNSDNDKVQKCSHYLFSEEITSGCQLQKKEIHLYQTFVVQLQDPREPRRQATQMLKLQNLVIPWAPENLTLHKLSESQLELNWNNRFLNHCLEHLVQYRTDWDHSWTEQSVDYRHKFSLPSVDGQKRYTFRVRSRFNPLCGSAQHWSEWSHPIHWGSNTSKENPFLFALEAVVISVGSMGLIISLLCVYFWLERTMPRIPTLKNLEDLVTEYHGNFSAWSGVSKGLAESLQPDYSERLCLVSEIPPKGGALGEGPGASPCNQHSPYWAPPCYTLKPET

potency in STAT5 phosphorylation on multiple lymphocyte populations (FIG. 12A-C), against IL2M0 (fold less potent than IL2M0) [1]: 100
Substance: IL2M2: Human IL2-(GGGGS)4-human IL-2Ra-GGGGS-Fc (Fc fusion)

potency in STAT5 phosphorylation on multiple lymphocyte populations (FIG. 14A-C), against IL2M4 (fold less potent than IL2M4) [1]: > 100
Substance: IL2M5: Fc-GGGGS-human IL2 (N88D, C125A) fusion (Fc fusion)

potency in inducing STAT5 phosphorylation in CD8+ OT-I T cells, against T5-IL2M6 [2]: 2
Substance: T4-IL2M6: OVA(257-264)-GCGGS-(GGGGS)2-mB2m-(GGGGS)4-mH2Kb-(GGGGS)4-Fc-(GGGGS)3-hIL2(H16A, F42A) (Fc fusion)
